Laboratory results from paper PMC6499816 (Nature Communications, 2019).
Ends that are not written are not given here.

What was measured:
Conditions in all cases: both partners purified
LC3A = target: T1, LC3A (human, UniProt Q9H492 1-121); experiment: BLI; biotinylated LIR peptide immobilised on streptavidin biosensors (Octet Red 96), ATG8 protein in solution; 25 mM Tris pH 7.5, 150 mM NaCl, 0.5 mM TCEP, 0.1% Tween-20, 1 mg/ml BSA, 25 °C; Kd from response against concentration, Y=Rmax*X/(Kd+X)
T1 construct: LC3A, human, full length; The plasmid has a 3C protease site after GST; source: recombinant, expressed in bacteria from the pAL plasmid (modified pGEX-6P2)

GABARAP = target: T2, GABARAP (human, UniProt O95166 1-117); experiment: as above
T2 construct: GABARAP, human, full length; The plasmid has a 3C protease site after GST; also called GABARAP WT; source: recombinant, expressed in bacteria from the pAL plasmid (modified pGEX-6P2)

LC3C = target: T3, LC3C (human, UniProt Q9BXW4 1-126); experiment: as above
T3 construct: LC3C, human, full length; The plasmid has a 3C protease site after GST; source: recombinant, expressed in bacteria from the pAL plasmid (modified pGEX-6P2)

[1] = target: GABARAP-L1 (recombinant, BLI) (human, UniProt Q9H0R8 1-117); experiment: BLI; biotinylated LIR peptide (50 μg/ml) immobilised on streptavidin biosensor, ATG8 in solution; Octet Red 96; 25 mM Tris pH 7.5, 150 mM NaCl, 0.5 mM TCEP, 0.1% Tween-20, 1 mg/ml BSA; 25 °C; Kd from response against concentration
[2] = target: T4, GABARAP (recombinant, BLI) (human, UniProt O95166 1-117); experiment: as above
T4 construct: full-length human GABARAP; also called WT GABARAP; source: recombinant; bacterial expression plasmid pAL

[3] = target: T5, GABARAP-L2 (recombinant, BLI) (human, UniProt P60520 1-117); experiment: as above
T5 construct: human GABARAP-L2; source: recombinant; bacterial expression plasmid pAL

LC3B (recombinant, BLI) = LC3B (recombinant, BLI) (human, UniProt Q9GZQ8 1-120); experiment: as above

Sequence of GABARAP-L1 (recombinant, BLI) (Q9H0R8 whole entry, looked up): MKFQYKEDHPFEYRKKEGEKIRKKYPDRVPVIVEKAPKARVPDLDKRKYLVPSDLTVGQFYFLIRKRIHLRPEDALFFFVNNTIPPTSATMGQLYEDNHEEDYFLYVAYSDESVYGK
T5 sequence (P60520 whole entry): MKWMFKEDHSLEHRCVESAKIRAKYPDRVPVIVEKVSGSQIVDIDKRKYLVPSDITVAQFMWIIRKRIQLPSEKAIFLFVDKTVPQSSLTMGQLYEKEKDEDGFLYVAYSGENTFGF

DTDDFVMVPAQFPGDLV (peptide, UniProt O75385 353-369, looked up, not fully specified (N-terminus); also: biotinylated, position not given here, source: synthetic peptide) [ULK1 (aa 353-369) LIR peptide] gave a Kd (LC3A) of 7.71 µM, a Kd (GABARAP) of 116 nM and a Kd (LC3C) of 1900 nM.

GGSSGNTHDDFVMIDFKPAFSKDD (also: biotin, position not given here) [ATG13 LIR peptide (biotinylated, BLI)] was tested, and the Kd [1] was 0.53 µM and the Kd [2] was 0.59 µM.

PDSIDAHTFDFETIPHPNIEQTIH (also: biotin, position not given here) [FIP200 LIR peptide (biotinylated, BLI)] showed a Kd [1] of 7 µM and a Kd [2] of 5.6 µM.

SDNCSGGDDDWTHLSSKEVDPSTG (also: biotin, position not given here) [p62 LIR peptide (biotinylated, BLI)] showed a Kd [3] of 5.2 µM and a Kd (LC3B (recombinant, BLI)) of 4.5 µM.
